# Assay results from article PMC3173227 (The Journal of Biological Chemistry, 2011).
# B1: human Ube2T (enzyme, UniProt Q9NPD8 1-197, looked up)
# chain: MQRASRLKRELHMLATEPPPGITCWQDKDQMDDLRAQILGGANTPYEKGVFKLEVIIPERYPFEPPQIRFLTPIYHPNIDSAGRICLDVLKLPPKGAWRPSLNIATVLTSIQLLMSEPNPDDPLMADISSEFKYNKPAFLKNARQWTEKHARQKQKADEEEMLDNLPEAGDSRVHNSTQKRKASQLVGIEKKFHPDV
# B2: human FANCL RING domain (residues 289-375) (domain or fragment, UniProt Q9NW38 289-375, looked up)
# chain: EIDFPARAILEKSDFTMDCGICYAYQLDGTIPDQVCDNSQCGQPFHQICLYEWLRGLLTSRQSFNIIFGECPYCSKPITLKMSGRKH
# How the values were obtained:
# [1] = molecular target: human FANCL RING domain (residues 289-375) (human) (UniProt Q9NW38); assay: ITC
# [2] = molecular target: B2; assay: SEC
# human Ube2T = molecular target: B1; assay: ITC
molecule,measurement,setting,value
Ube2T-F63A (from UniProt Q9NPD8 1-197) (enzyme),Kd,[1],5000 nM
B1,stoichiometry N,[2],1
B2,Kd,human Ube2T,454 nM
